Assay results: patent US20240132617A1 (VISTERRA, published 2024)

Target: T1, human C3b (human, UniProt P01024 23-667; P01024 749-1663, limits assumed)
T1 construct: C3b is its two-chain fragment (beta chain plus alpha' chain, without C3a); also called complement component 3b
Assay: antibody levels measured by capture on human C3b versus Cynomolgus C3b (FIG. 1C and FIG. 1D)
Description: In this study, pharmacokinetics of anti-C3b antibodies was determined in non-human primates. First, Ab1 (anti-C3b VHH fused to modified IgG4 Fc) and control Ab (IC12; control antibody) were intravenously administered at 10 mg/kg to Cynomolgus monkeys. Plasma samples were collected pre-administration and at 30 minutes, 6 hr, 24 hr, 48 hr, 120 hr, 336 hr, 456 hr, 672 hr, and 792 hr post administration, and % of antibody remaining was measured.
To confirm that the C3b antibody of the present invention binds to human C3b with high affinity, in addition to Cynomolgus C3b, concentrations of antibodies to human C3b or Cynomolgus C3b were measured.

T1 sequence (P01024 23-667 limits assumed, chain 1 of 2): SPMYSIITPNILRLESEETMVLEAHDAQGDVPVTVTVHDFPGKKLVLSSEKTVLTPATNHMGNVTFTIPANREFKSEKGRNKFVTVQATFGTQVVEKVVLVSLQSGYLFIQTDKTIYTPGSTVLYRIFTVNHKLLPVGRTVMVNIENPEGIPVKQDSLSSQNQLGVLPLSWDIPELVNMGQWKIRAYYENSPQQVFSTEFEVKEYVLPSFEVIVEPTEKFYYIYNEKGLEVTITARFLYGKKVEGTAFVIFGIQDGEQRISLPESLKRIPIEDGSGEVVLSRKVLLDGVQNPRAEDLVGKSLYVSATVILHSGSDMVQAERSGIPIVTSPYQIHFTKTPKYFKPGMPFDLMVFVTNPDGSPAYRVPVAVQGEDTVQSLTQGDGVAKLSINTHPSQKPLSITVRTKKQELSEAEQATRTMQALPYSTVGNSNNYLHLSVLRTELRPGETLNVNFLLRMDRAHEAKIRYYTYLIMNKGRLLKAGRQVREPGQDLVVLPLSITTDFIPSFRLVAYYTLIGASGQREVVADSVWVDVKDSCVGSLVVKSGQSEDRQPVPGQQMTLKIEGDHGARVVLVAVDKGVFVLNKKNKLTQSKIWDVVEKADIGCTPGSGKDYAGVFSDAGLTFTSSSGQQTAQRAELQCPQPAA
T1 sequence (P01024 749-1663 limits assumed, chain 2 of 2): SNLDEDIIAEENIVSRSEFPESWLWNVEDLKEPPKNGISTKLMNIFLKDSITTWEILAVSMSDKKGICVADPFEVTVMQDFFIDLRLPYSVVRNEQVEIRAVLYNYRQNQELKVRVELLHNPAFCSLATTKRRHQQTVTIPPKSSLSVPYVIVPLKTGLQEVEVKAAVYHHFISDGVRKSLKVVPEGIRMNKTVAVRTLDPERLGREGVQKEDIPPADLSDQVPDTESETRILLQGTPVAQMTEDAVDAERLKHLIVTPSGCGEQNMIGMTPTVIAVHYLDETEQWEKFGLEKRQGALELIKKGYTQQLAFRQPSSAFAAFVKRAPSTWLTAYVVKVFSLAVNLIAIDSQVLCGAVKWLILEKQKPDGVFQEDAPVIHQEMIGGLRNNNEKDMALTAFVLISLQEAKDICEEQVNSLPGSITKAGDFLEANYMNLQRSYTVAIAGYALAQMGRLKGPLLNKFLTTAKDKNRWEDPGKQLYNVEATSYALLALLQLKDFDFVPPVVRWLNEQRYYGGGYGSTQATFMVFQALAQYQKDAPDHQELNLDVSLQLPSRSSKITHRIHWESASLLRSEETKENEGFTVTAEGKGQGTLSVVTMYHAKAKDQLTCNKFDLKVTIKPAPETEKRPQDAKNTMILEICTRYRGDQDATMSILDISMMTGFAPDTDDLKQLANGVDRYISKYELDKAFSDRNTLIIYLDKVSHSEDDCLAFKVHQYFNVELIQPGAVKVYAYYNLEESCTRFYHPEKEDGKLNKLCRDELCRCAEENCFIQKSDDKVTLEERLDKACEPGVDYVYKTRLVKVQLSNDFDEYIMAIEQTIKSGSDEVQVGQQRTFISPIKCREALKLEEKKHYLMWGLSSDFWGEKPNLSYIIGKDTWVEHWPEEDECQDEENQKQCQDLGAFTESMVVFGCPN

fold greater affinity as compared to Cynomolgus C3b: ~100 fold
B1: Ab1 (anti-C3b VHH fused to modified IgG4 Fc) (Fc fusion)
chain: EVQLLESGGGLVQPGGSLRLSCAASGRTFSNYHMGWFRQAPGQGREFVATIIRTGTTIYYADSVKGRFTISRDNSKNTLYLQMNSLRAEDTAVYYCAAATSGWHIKTVTPYEYWGQGTLVTVSSESKYGPPCPPCPAPEVEGGPSVFLFPPKPKDTLMISRTPEVTCVVVGVSQEDPEVQFNWYVDGVEVHNAKTKPREEQFNSTYRVVSVLQVLHVDWLNGKEYKCKVSNKGLPSSIEKTISKAKGQPREPQVYTLPPSQEEMTKNQVSLTCLVKGFYPSDIVVEWESNGQPENNYKTTPPVLDSDGSFFLYSRLTVDKSRWQEGNVFSCSVMHEALHNHYTQKSLSLSLGK
notes: In the assay Ab1 was in plasma of dosed Cynomolgus monkeys; also called anti-C3b Ab1; C3b antibody
